{"source": "patent US20250163149A1", "about": "“ANTI-RAGE ANTIBODY” (Swansea University, priority 2022, published 2025)", "molecules": {"B1": {"name": "hHA9: chimeric humanised format of anti-RAGE antibody clone HA9 (antibody, V domains shown)", "VH": "EVKLVETGGGLVQPGRPMKLSCVASGFTLSDHWMNWVRQSPEKGLEWVAQIRNRPYKFEKYYSDSVKGRFTISRDDSKNSVYLQMNNLRAEDMGIYYCSSYRYGLAYWGQGTLVTVST", "VL": "DNLLTQSPAILSVSPGERVSFSCRASQTIDTRIHWYQQRKNGSPRLLIRYISESLSGIPSRFSGSGSGTEFTLTINSVESEDIADYYCQQTESWPITFGSGTKLEIK"}}, "key": {"SKOV3 cells": {"test_system": "SKOV3 cells", "experiment": "Internalisation assay on SKOV3 cells", "type": "cell-based, human", "conditions": "for uptake (internalisation), secondary antibody detection: 4 h or 24 h at 37° C.", "description": "To screen internalization capacity and traffic to lysosomes of α-RAGE antibodies, all the primary antibodies used in the screening were conjugated to pHAb Amine Reactive Dye following manufacturer's instructions (Promega, UK, Cat. No. G983). This type of dye emits fluorescence when traffics to acidic environments (late endosome and lysosome). For this purpose, 1.5×10^4 SKOV3 cells/well were seeded in 8-well chamber slides (Ibidi) in 300 μl of stripped medium and cultured for 24 h in a humidified, 5% CO2 in air atmosphere incubator at 37° C. After culture, cells were washed in pre-warmed (37° C.) Dulbecco's phosphate buffered saline (DPBS) and slides placed on ice. Cells were treated with control medium or medium containing one of the α-RAGE antibodies conjugated to pH-dye at 10 μg/ml, and the 8-well chamber slides were incubated on ice for 30 minutes. Slides were then transferred to the incubator at 37° C. for 4 h or 24 h. After internalization time, cells were washed in DPBS, fixed in 4% paraformaldehyde for 20 min and permeabilized with 0.1% Triton X-100 (Sigma) for 10 minutes at 4° C. Cells were washed with PBS extensively between all steps, counterstained before imaging with Hoechst (Life Technologies™) and imaged using a LSM710 confocal fluorescence microscopy system (Zeiss, UK). Unconjugated α-RAGE antibodies were also used in the internalisation assay. In this case were visualized using Alexa-fluorophore secondary antibodies as described in the immunofluorescence method."}, "RAGE [1]": {"test_system": "RAGE", "T1 sequence (Q15109 23-317 limits assumed)": "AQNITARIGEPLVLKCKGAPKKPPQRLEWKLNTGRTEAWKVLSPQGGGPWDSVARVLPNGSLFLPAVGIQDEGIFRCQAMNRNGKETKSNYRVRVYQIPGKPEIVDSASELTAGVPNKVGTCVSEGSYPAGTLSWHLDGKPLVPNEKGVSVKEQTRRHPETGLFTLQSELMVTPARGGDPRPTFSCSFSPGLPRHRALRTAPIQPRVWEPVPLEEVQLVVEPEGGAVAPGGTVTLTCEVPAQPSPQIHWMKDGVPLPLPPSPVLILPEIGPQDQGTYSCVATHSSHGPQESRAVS", "experiment": "Western blot on protein extracts from ovarian cancer cell lines (OCCL)", "set-up": "species or system human", "conditions": "whole-cell extracts of SKOV3, OVCAR3, A2780 and cisplatin-resistant lines; antibody 1 μg/mL", "description": "Confluent cultures of cells were lysed in ice cold RIPA buffer (Sigma-Aldrich), whole-cell protein extracts were quantified with DC protein assay, 30 μg/lane were resolved by SDS-PAGE on TGX precast gels, transferred to mini PDVF membranes, blocked 1 h at RT in 5% Bovine Serum Albumin (BSA) in TBST (Tris Buffered Saline, 0.1% Tween-20) and incubated o/n at 4° C. in the same solution with 1 μg/mL of mA9 (sc-365154, Santa Cruz Biotechnology) antibody, mHA9 antibody or hHA9 antibody, or GAPDH (Santa Cruz Biotechnology) as loading control. Membranes were then washed with TBST and incubated 1 h at RT with 0.1 μg/mL of IgG horseradish peroxidase secondary antibody (GE Healthcare) or […] of Goat F(ab′) 2 Anti-Mouse IgG-F(ab′) 2 horseradish peroxidase secondary antibody (Abcam). Target proteins were visualised after incubation with Clarity Western ECL Substrate and imaged using a ChemiDoc System Bio-Rad Imager. Bands were quantified with ImageLab software. Unless stated all the materials specified above were obtained from Bio-Rad Laboratories."}, "RAGE [2]": {"molecular_target": "T1, RAGE (Homo sapiens, UniProt Q15109)", "T1 sequence (Q15109 23-404)": "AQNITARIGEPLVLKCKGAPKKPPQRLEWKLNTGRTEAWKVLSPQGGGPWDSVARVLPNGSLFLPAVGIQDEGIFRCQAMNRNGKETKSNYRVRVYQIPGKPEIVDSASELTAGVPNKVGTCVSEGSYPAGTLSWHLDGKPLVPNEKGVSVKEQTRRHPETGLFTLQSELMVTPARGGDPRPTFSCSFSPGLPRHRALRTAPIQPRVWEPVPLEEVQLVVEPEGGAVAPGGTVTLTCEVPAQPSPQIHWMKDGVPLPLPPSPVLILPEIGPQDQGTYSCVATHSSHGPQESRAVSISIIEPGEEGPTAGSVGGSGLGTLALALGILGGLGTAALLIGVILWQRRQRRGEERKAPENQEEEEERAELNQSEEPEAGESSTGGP", "experiment": "Western blot on protein extracts from human healthy tissues", "conditions": "brain, breast, kidney, liver, lung, ovary, pancreas, spleen and uterus"}, "RAGE [3]": {"molecular_target": "T1, RAGE", "experiment": "Binding target blocking assay by immunofluorescence on HEC-1A cells", "type": "cell-based", "set-up": "endogenous in cells; host or cells: HEC-1A (ECACC)", "conditions": "then antibody at 4 μg/ml", "description": "To proof that HA9 shares similar binding epitope as other α-RAGE antibodies, an immunofluorescence approach was used. For this purpose, 1.5×10^4 HEC1A cells/well (obtained from the European Collection of Authenticated Cell Cultures, ECACC, Public Health England, UK) were seeded in 8-well chamber slides (Ibidi) in 300 μl of stripped medium and cultured for 24 h in a humidified, 5% CO2 in air atmosphere incubator at 37° C. After culture, cells were fixed with 4% paraformaldehyde (Sigma) for 20 minutes, permeabilized with 0.1% Triton X-100 (Sigma) for 10 minutes at 4° C. and blocked with 3% BSA in PBS for 1 h. Cells were then pre-incubated with a primary antibody against RAGE at a concentration in excess (20 μg/ml in 3% BSA in PBS for 1 h) to block the specific epitope they bind, before cells were incubated with the α-RAGE antibody of interest at 4 μg/ml in 3% BSA-PBS overnight at 4° C. This was followed by 1 h incubation with Alexa-fluorophore-conjugated secondary antibodies. Cells were washed with PBS extensively between all steps, counterstained before imaging with Hoechst (Life Technologies™) and imaged using a LSM710 confocal fluorescence microscopy system (Zeiss, UK). The mean intensity of fluorescence was obtained using imageJ by measuring the integrated density per imaged field, normalised by the number of cells in the respective field and obtaining the mean from >10 fields obtained per condition. A decrease in fluorescence in the pre-blocked condition compared with the not-pre-blocked condition means both antibodies share similar epitope of binding on the same protein."}}, "note": "“Also recorded” adds a separate entry of the source."}
{"molecule": "B1", "values": [{"measurement": "uptake (internalisation), secondary antibody detection", "setting": "SKOV3 cells; compared with other clones and AB11451, listed as chimeric HA9", "result": "highest uptake"}, {"measurement": "uptake (internalisation), secondary antibody detection", "setting": "SKOV3 cells; compared with other clones and AB11451, listed as chimeric-HA9", "result": "better uptake"}, {"measurement": "uptake of pH-dye conjugated antibody", "setting": "SKOV3 cells; pHAb dye conjugate 10 μg/ml, 4 h or 24 h", "result": "highest uptake and traffics efficiently to acidic endosomes"}, {"measurement": "RAGE isoform detected by western blot", "setting": "RAGE [1]", "result": "able to detect expression levels of full-length transmembrane RAGE; also recorded: detection of high levels of full-length RAGE isoform"}, {"measurement": "RAGE expression detected in human healthy tissues", "setting": "RAGE [2]", "result": "absent or very low expression"}, {"measurement": "staining after Abcam antibody pre-blocking", "setting": "RAGE [3]; Abcam antibody 20 μg/ml pre-incubation", "result": "did not result in a decrease"}, {"measurement": "staining after N16 pre-blocking", "setting": "RAGE [3]; N16 20 μg/ml pre-incubation", "result": "statistically significant decrease"}]}
